Source: paper PMC4835898 (Frontiers in Microbiology, 2016)

Experiments:
[1] = molecular target: T1, Bacillus subtilis DnaK wild type, 6xHis-tagged (Bacillus subtilis 168, UniProt P17820 1-611, to some extent phosphorylated (phosphotyrosine signal) during heterologous expression in E. coli; residues and extent not told for this preparation); assay: pull-down; 100 ug 6xHis-DnaK (WT or Y601F) and 100 ug Strep-tagged DnaJ or GrpE incubated with 1 ug anti-6xHis antibody (HIS.H8) in 450 uL IP Lysis/Wash Buffer (Pierce Classic IP Kit); captured on Protein A/G agarose; eluates blotted with anti-Strep tag and anti-His tag; details: both partners purified
T1 construct: probably the whole ORF, since Y601 lies near the C-terminus; also called DnaK WT; WT DnaK; source: E. coli (NEB Express Iq), purified (Ni-NTA, desalted on PD-10); not shown: 6xHis, N-terminal, kept

[2] = molecular target: T2, Bacillus subtilis DnaK Y601F, 6xHis-tagged (Bacillus subtilis 168, UniProt P17820 1-611, Y601F, to some extent phosphorylated during heterologous expression in E. coli (on residues other than 601); residues not told for this preparation); assay: as above; details: both partners purified
T2 construct: the mutant is described as a version of the same protein in the same vector; source: E. coli (NEB Express Iq), purified (Ni-NTA, desalted on PD-10); not shown: 6xHis, N-terminal, kept

| Binder | binding result [1] | binding result [2] |
| --- | --- | --- |
| Bacillus subtilis GrpE, Strep-tagged (natural protein, Bacillus subtilis 168, UniProt P15874 1-187, looked up, Made in a pQE-30 vector in which the His-tag was replaced by a strep-tag (Jers et al., 2010)) MSEEKQTVEQNETEEQEIIEEQAAADEQQEETNESELLQNQINELQGLLEEKENKLLRVQADFENYKRRSRLEMEASQKYRSQNIVTDLLPALDSFERALQVEADNEQTKSLLQGMEMVHRQLVEALKKEGVEAIEAVGQEFDPNLHQAVMQAEDENYGSNIVVEEMQKGYKLKDRVIRPSMVKVNQ | binds | binds |
| Bacillus subtilis DnaJ, Strep-tagged (natural protein, Made in a pQE-30 vector in which the His-tag was replaced by a strep-tag (Jers et al., 2010)) not shown | binds | binds |
